Measurements taken from publication PMC7533053, “Improving transgene expression and CRISPR‐Cas9 efficiency with molecular engineering‐based molecules”.

B1: ANAM-2Sβ (structured_RNA)
RNA: GGGAGCGGCCGAUCUAUGGACGCUAUAGGCACACCGGAUACUUUAACGAUUGGCCGCCUGCUGCGGGCCGAUCUAUGGACGCUAUAGGCACACCGGAUACUUUAACGAUUGGCCCGCAGCAGUUCCC

Assays:
β-catenin [1] = target: T1, β-catenin (UniProt P35222 1-781); experiment: SPR; stronger than ANAM-β; KD shown only in figure; SPR Biacore X100, CM5 chip, protein immobilized by amine coupling; RNA injected 1.5 min at 5 μL/min, six concentrations 4.1 nM-1 μM; running buffer, pH and temperature not stated
T1 sequence (P35222 whole entry): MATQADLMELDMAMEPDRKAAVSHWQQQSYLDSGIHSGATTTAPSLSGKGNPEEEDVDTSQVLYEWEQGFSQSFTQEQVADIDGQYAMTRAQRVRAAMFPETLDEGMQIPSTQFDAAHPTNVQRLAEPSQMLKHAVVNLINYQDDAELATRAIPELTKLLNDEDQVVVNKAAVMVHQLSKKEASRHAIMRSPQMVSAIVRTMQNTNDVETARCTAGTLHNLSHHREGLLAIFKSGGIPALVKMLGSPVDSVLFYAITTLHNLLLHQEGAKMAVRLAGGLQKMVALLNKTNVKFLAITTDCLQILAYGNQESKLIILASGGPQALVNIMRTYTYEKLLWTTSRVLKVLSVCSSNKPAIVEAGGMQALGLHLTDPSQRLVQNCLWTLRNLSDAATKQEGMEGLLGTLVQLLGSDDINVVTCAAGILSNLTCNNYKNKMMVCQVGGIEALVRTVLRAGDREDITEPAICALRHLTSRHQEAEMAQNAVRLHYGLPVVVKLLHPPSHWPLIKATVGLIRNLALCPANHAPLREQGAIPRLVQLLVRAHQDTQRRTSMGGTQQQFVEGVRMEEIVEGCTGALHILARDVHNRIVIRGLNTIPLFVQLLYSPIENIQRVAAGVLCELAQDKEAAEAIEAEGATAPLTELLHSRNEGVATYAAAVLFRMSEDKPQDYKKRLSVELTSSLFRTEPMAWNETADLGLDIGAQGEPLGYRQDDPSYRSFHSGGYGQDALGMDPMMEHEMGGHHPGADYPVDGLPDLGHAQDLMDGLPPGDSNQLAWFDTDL

β-catenin [2] = target: T1, β-catenin; experiment: SPR; KD shown only in figure; SPR Biacore X100, CM5 chip, protein immobilized by amine coupling; RNA injected 1.5 min at 5 μL/min, six concentrations 4.1 nM-1 μM; running buffer, pH and temperature not stated

Binder | binding result (β-catenin [1]) | binding result (β-catenin [2])
B1 | binds | 
AGGCCGAUCUAUGGACGCUAUAGGCACACCGGAUACUUUAACGAUUGGCU (structured_RNA) [ANAM-β] |  | binds
